Legend:
plasma kallikrein = plasma kallikrein (UniProt P03952 20-638); test: SPR kinetics, Ir-CPI immobilized (about 200 RU), analyte at 6 concentrations from 5 nM to 300 nM
Method: Interaction kinetics were determined, for each analyte, with 6 different concentrations (from 5 nM to 300 nM). Binding data were analyzed using BIA evaluation software to determine the kinetic constants.
The ability of Ir-CPI to bind a (co)factor of coagulation or fibrinolysis was evaluated by surface plasmon resonance. […] Moreover, the kinetics of interaction between Ir-CPI and the four target factors (XIIa, XIa, plasmin and kallikrein) were measured after a new immobilization of Ir-CPI. […] Interaction kinetics were determined for each analyte, at 6 different concentrations (from 5 nM to 300 nM). The kinetic data obtained were individually processed with BIA evaluation software in order to determine the kinetics constants. […] FIG. 9 represents sensorgrams for interactions between coagulation factors and immobilized Ir-CPI measured by surface plasmon resonance. Ir-CPI was immobilized onto the surface of a sensor chip CM5 at level of 1500 resonance units (RUs). Contact factors (100 nM final concentration) were injected at a flow rate of 70 μl/min in HBS buffer, and association was monitored. After return to buffer flow, dissociation was monitored during 84 s. The sensor chip surface was regenerated by a pulse injection of 25 mM NaOH after each experiment.

factor IX = target: T1, factor IX (UniProt P00740 47-461); test: SPR (BIAcore 3000), Ir-CPI immobilized on CM5 chip, factor injected as analyte
T1 construct: also called fIX
Method: (§1) The interaction between Ir-CPI and coagulation or fibrinolytic factors was monitored using a BIAcore 3000 instrument (BIAcore AB, Sweden). Ir-CPI (15 μM) was immobilized on the surface of a CM5 sensor chip in 10 mM acetate buffer, pH 5.0, by the amine coupling procedure according to the manufacturer's instructions. 1500 resonance units (RU) of immobilized Ir-CPI were used for the assay. To subtract the non-specific component from the apparent binding response, a blank flow cell was prepared using the same immobilizing procedure without Ir-CPI. Binding analyses were carried out using HBS buffer (HEPES 10 mM, NaCl 150 mM, EDTA 3 mM; pH 7.4 with 0.005% surfactant P20) as running buffer at 25° C. 100 μl of each analyte (100 nM) was injected on the sensor chip at a flow rate of 70 μl/min Association was monitored during an 84 s injection of analyte. Dissociation was monitored for 3 min after return to the running buffer.
(§2) The ability of Ir-CPI to bind a (co)factor of coagulation or fibrinolysis was evaluated by surface plasmon resonance. […] Moreover, the kinetics of interaction between Ir-CPI and the four target factors (XIIa, XIa, plasmin and kallikrein) were measured after a new immobilization of Ir-CPI. […] Interaction kinetics were determined for each analyte, at 6 different concentrations (from 5 nM to 300 nM). The kinetic data obtained were individually processed with BIA evaluation software in order to determine the kinetics constants.

[1] = target: T2, high molecular weight kininogen (UniProt P01042 19-644); test: as above
T2 construct: also called HMWK
T2 sequence (looked up): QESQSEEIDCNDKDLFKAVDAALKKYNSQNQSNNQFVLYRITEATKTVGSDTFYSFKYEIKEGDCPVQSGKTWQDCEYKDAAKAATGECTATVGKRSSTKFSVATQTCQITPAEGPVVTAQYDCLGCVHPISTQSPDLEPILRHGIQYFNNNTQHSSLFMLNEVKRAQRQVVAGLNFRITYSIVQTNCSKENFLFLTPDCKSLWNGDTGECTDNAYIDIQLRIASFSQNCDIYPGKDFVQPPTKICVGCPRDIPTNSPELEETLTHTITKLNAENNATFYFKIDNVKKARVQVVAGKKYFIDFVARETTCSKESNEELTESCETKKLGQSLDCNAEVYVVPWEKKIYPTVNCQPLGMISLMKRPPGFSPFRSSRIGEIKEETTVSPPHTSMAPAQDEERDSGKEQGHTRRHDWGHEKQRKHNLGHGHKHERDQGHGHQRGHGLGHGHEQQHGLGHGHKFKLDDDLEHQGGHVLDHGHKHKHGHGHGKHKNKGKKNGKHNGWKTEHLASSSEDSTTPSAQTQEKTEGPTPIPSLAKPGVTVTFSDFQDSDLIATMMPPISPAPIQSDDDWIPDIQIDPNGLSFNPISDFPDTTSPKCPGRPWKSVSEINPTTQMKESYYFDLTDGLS
Method: as §1, §2

thrombin = target: T3, thrombin (UniProt P00734 328-622); test: as above
T3 construct: also called factor IIa; IIa
Method: as §1, §2

plasminogen = plasminogen (UniProt P00747 20-810); test: as above
Method: as §1, §2

t-PA = t-PA (UniProt P00750 36-562); test: as above
Method: as §1, §2

factor X = target: T4, factor X (UniProt P00742 41-488); test: as above
T4 construct: also called fX
Method: as §1, §2

factor VIIa = target: T5, factor VIIa (UniProt P08709 61-466); test: as above
T5 construct: In the amidolytic and reconstituted assays it was used with tissue factor ('FT-FVIIa', 'tissue factor complex/factor VIIa'); In SPR it is printed only as 'fVIIa'; also called fVIIa; FVIIa
T5 sequence (looked up): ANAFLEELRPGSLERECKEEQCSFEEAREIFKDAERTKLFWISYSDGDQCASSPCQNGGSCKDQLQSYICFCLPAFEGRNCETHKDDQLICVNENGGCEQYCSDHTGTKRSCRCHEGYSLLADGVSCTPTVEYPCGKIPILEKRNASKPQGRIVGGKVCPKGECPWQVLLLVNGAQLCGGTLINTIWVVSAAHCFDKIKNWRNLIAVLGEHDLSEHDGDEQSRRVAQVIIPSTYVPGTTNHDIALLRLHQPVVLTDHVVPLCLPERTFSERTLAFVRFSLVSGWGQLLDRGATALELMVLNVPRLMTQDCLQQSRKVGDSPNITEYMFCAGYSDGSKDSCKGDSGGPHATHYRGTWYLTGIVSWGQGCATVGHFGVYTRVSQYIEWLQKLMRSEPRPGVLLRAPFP
Method: as §1, §2

factor XIIa = target: T6, factor XIIa (UniProt P00748 20-615, limits assumed); test: cell-based or functional assay
T6 sequence (looked up): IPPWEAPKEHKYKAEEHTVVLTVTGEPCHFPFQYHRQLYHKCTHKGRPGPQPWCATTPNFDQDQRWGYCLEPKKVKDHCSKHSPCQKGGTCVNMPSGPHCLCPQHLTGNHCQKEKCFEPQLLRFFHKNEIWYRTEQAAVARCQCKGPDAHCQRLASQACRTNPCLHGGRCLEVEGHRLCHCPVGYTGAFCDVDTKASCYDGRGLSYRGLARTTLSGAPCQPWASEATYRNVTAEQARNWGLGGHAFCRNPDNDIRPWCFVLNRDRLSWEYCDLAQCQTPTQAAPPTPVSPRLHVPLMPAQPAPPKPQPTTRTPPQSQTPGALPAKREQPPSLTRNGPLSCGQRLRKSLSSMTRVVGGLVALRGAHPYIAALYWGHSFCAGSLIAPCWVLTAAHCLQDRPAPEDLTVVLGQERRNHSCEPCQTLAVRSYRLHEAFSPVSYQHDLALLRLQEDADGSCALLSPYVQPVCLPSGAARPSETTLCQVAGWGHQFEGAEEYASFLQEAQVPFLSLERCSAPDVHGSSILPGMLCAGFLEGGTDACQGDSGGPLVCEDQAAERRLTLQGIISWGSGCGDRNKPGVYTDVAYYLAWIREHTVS

factor XIa = factor XIa (UniProt P03951 19-625); test: cell-based or functional assay

plasma kallikrein, sequence (P03952 20-638 limits assumed): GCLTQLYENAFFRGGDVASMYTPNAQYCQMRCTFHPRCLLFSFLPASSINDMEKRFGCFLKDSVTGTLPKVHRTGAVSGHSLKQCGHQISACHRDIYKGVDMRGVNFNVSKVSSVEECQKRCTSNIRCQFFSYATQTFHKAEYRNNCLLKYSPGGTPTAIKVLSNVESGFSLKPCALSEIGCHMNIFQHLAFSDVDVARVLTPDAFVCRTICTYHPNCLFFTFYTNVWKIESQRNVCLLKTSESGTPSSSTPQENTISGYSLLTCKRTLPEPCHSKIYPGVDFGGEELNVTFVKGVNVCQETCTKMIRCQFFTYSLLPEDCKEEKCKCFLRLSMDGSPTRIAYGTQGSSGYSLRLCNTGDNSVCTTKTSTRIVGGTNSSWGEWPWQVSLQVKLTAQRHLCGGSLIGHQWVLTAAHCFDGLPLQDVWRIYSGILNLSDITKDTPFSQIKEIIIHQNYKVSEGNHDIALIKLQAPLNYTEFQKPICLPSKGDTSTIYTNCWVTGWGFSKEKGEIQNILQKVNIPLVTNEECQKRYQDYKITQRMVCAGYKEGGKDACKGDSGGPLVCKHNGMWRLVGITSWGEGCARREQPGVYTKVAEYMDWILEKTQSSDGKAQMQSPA
plasminogen, sequence (P00747 20-810 limits assumed): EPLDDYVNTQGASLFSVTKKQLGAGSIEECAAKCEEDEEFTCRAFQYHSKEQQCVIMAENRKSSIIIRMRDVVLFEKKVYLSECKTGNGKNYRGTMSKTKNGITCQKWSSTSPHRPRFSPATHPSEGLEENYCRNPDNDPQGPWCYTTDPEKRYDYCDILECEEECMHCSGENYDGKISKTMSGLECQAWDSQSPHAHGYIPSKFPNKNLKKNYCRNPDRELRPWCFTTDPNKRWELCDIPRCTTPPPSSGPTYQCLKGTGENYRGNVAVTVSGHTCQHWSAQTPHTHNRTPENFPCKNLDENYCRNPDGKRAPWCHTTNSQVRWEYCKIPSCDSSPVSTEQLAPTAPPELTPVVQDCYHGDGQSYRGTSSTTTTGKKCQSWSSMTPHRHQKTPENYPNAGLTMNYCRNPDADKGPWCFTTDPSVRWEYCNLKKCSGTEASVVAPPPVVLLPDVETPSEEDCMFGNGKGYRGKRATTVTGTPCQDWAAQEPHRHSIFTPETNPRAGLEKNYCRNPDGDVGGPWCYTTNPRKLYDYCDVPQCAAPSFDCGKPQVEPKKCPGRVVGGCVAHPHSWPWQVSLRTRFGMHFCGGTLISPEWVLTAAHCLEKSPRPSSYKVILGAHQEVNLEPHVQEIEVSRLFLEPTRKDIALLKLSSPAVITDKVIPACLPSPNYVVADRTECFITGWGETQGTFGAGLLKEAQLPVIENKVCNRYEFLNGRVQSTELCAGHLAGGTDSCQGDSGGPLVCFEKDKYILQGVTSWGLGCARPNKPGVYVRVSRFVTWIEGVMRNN
t-PA, sequence (P00750 36-562 limits assumed): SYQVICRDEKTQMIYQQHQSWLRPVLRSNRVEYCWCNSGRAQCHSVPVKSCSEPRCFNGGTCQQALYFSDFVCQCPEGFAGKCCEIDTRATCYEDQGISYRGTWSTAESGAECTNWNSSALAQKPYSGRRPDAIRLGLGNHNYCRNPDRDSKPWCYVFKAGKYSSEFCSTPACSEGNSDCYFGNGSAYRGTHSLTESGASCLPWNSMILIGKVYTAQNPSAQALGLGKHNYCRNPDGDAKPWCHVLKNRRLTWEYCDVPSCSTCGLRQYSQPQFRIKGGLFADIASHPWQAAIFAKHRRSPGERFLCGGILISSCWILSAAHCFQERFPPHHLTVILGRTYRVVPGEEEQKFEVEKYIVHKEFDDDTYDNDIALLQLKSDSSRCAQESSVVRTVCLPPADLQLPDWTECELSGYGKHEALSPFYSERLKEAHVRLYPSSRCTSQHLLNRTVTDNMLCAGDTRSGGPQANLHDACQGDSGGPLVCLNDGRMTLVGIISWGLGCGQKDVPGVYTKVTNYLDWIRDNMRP

B1: Ir-CPI (Ixodes ricinus Contact Phase Inhibitor), recombinant (other)
chain: ANHKGRGRPAKCKLPPDDGPCRARIPSYYFDRKTKTCKEFMYGGCEGNENNFENITTCQEECRAKKV
notes: Kunitz-type protein; Made in E. coli as a GST fusion (pGEX-6P-1), released with PreScission protease and gel filtered; In the SPR assay it was amine-coupled to a CM5 chip; also called ID; NO; 7 without its peptide signal
Kd (plasma kallikrein): 200 nM
binding result (factor IX): no binding (tested: 100 nM)
binding result [1]: no binding (tested: 100 nM)
binding result (thrombin): no binding (tested: 100 nM)
binding result (plasminogen): no binding (tested: 100 nM)
binding result (t-PA): no binding (tested: 100 nM)
binding result (factor X): no binding (tested: 100 nM)
binding result (factor VIIa): no binding (tested: 100 nM)
EC50 (µg/mL) of inhibition of FXII coagulation activity, aPTT-based assay in human plasma with FXII deficient plasma (factor XIIa): 1.38 µg/mL
EC50 (µg/mL) of inhibition of FXI coagulation activity, aPTT-based assay in human plasma with FXI deficient plasma (factor XIa): 1.41 µg/mL

Source: patent publication US20160046728A1 (HENOGEN S A, published 2016)
